Our source for the Pseudovirus Neturalization values is patent publication US20240327505A1.

What all share (test): cell-based or functional assay
In assay [1] the target is SARS-CoV-2 "Delta" B.1.617.2 full-length Spike protein on pseudovirus (SARS-CoV-2) (UniProt P0DTC2).
Assay [2] deals with SARS-CoV-2 "Delta-plus" B.1.617.2.1 full-length Spike protein on pseudovirus (SARS-CoV-2) (UniProt P0DTC2).
The target of assay [3] is SARS-CoV-2 "Epsilon" B.1.427/9 full-length Spike protein on pseudovirus (SARS-CoV-2) (UniProt P0DTC2).
Assay [4] deals with SARS-CoV-2 "Beta" SA B.1.351 full-length Spike protein on pseudovirus (SARS-CoV-2) (UniProt P0DTC2).
Assay [5] concerns the target SARS-CoV-2 "Gamma" Brazil P.1.B.1.1.28 full-length Spike protein on pseudovirus (SARS-CoV-2) (UniProt P0DTC2).
For assay [6], the target named is SARS-CoV-2 "Alpha" UK B.1.1.7 full-length Spike protein on pseudovirus (SARS-CoV-2) (UniProt P0DTC2).

Take “REGN10987 | Imdevimab (AB-010157) (antibody)”: the Pseudovirus Neturalization in assay [1], in assay [2] and in assay [3] was 0.001 µg/mL throughout.

In the case of “REGN10933 | Casirivimab (AB-010156) (antibody)”, the Pseudovirus Neturalization was determined as 0.001 µg/mL in assay [1]; 1.09 µg/mL in assay [4]; 0.001 µg/mL in assay [2]; 0.666 µg/mL in assay [5]; 0.001 µg/mL in assay [3].

Turning to CR3022 (AB-009073) (antibody), the Pseudovirus Neturalization in assay [1], in assay [4], in assay [6], in assay [2], in assay [5] and in assay [3] was over 50 µg/mL throughout.

For COVA1-21 (AB-010159) (antibody), the Pseudovirus Neturalization in assay [1], in assay [4], in assay [6], in assay [2], in assay [5] and in assay [3] was over 50 µg/mL each time.

For the substance CA-1 (AB-009265) (antibody), the Pseudovirus Neturalization in assay [1] is 2.19 µg/mL; in assay [4], over 50 µg/mL; in assay [6], 0.209 µg/mL; in assay [2] it was 41.5 µg/mL; in assay [5] it was over 50 µg/mL; in assay [3] it was 0.33 µg/mL.

As to “LY-CoV555 | Bamlanivimab (AB-010160) (antibody)”, the Pseudovirus Neturalization in assay [1] was 19.3 µg/mL; in assay [4] it was over 50 µg/mL; in assay [6], 0.0012 µg/mL; in assay [2], 6.93 µg/mL; in assay [5] it was over 50 µg/mL; in assay [3] it was 7.82 µg/mL.

For the substance CB-6 (AB-009264) (antibody), the Pseudovirus Neturalization in assay [1] is 0.004 µg/mL; in assay [4], over 50 µg/mL; in assay [6] it was 0.417 µg/mL; in assay [2] it was over 50 µg/mL; in assay [5], over 50 µg/mL; in assay [3] it was 0.009 µg/mL.

On to “Anti-Nucleocapsid (Neg Control) (antibody)”, for which the Pseudovirus Neturalization in assay [1], in assay [4], in assay [6], in assay [2], in assay [5] and in assay [3] was over 50 µg/mL each time.
